{
  "source": "paper PMC10420310",
  "about": "“The Complex Proteolipidic Behavior of the SARS-CoV-2 Envelope Protein Channel: Weak Selectivity and Heterogeneous Oligomerization” (International Journal of Molecular Sciences, 2023)",
  "proteins": {"B1": {"name": "transmembrane domain of SARS-2 E corresponding to residues 7–38 (E-TM) (peptide)", "chain": "EETGTLIVNSVLLFLAFVVFLLVTLAILTALR", "notes": "SARS-CoV-2 envelope (E) protein, transmembrane domain, residues 7-38; monomer 3490 Da; also called E-TM 7–38"}},
  "biological_target": "the molecule itself",
  "test": "AUC; sedimentation velocity, E-TM at DPR 25 (lowest DPR tested) in 5 mM C14SB micelles, 50 mM Tris-HCl pH 7.3, 100 mM NaCl, 29.4% D2O, 20 °C, 50,000 rpm",
  "data": [
    {"protein": "B1", "values": [
      {"measurement": "stoichiometry N", "result": "~3.3"}
    ]}
  ]
}
